The text below walks through data of patent US20230346897A1.

The target of the experiment is human amyloid Aβ40 (human) (UniProt P05067).

On to “human plasminogen purified from the plasma of human donors (enzyme)”, for which the amount of Aβ40 left (Tricine-SDS-PAGE, quantitative scanning; solvent control defined as 100%) after 3 h at 37 °C in rabbit cerebrospinal fluid stood at 74.8%.
